Earlier results in paper PMC4857727.

Key:
[1] = target: Syndecan peptide (Homo sapiens) (UniProt P31431)
[2] = target: IL5R-alpha peptide (Homo sapiens) (UniProt Q01344)
UniProt Q01344, sequence (Q01344 21-420): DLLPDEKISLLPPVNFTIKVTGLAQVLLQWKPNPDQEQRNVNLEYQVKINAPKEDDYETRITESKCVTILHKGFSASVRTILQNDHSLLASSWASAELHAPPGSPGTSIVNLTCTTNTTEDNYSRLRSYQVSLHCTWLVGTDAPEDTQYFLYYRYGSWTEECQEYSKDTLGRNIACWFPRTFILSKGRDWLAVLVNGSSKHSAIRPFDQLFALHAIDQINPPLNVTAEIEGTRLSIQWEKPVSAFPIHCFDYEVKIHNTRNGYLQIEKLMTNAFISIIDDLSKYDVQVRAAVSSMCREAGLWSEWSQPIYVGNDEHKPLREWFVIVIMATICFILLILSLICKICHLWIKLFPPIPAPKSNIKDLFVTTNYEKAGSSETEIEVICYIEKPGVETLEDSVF

UniProt P31431, sequence (P31431 19-198): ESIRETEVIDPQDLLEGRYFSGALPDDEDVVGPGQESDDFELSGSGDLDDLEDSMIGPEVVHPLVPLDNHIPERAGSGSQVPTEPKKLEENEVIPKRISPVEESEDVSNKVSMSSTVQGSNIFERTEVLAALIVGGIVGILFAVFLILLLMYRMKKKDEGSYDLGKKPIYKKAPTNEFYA

Kd [1]: 2900 nM | Kd [2]: 43.8 µM
Substance: Syntenin PDZ2 (from UniProt O00560)
